Measurements: patent publication US20190177416A1 (NANOMAB TECHNOLOGY, published 2019)
Residue numbers refer to the chain shown, from its start. Values belong to the binder of their own block, whether it stands above or below them.

Target: T1, human PD-L1 protein (coated antigen) (human, UniProt Q9NZQ7 19-238, limits assumed)
T1 construct: Construct not described; also called PD-L1 antigen; antigenic protein PD-L1
Experiment: PE-ELISA, crude extract on coated PD-L1
Protocol: (1) From the cell culture dishes containing phage after 3-4 rounds of screening in Example 2, 1000 individual colonies were selected and inoculated into TB medium containing 100 μg/ml of ampicillin (1 liter of TB medium contains 2.3 g of potassium dihydrogen phosphate, 12.52 g of dipotassium hydrogen phosphate, 12 g of peptone, 24 g of yeast extract, 4 ml of glycerol), after growth to log phase, add a final concentration of […] of IPTG, culture at 28° C. overnight. (2) The crude antibody was obtained by the infiltration method, and the antibody was transferred to an antigen-coated ELISA plate and placed at room temperature for 1 hour. (3) Unbound antibody was washed away with PBST, and a mouse anti-HA tag antibody (anti-mouse anti-HA antibody, purchased from Beijing Kangwei Century Biotechnology Co., Ltd.) was added and placed at room temperature for 1 hour. (4) Unbound antibody was washed away with PBST, and anti-mouse alkaline phosphatase conjugate (goat anti-mouse alkaline phosphatase-labeled antibody, purchased from Amytech Co., Ltd.) was added and placed at room temperature for 1 hour. (5) Wash the unbound antibody with PBST, add alkaline phosphatase coloring solution, and read the absorbance at 405 nm on an ELISA apparatus. (6) When the OD value of the sample well is more than 3 times the OD value of the control well (Ratio+/−>3), it is judged as a positive clone hole. (7) The bacteria of the positive clone well were shaken in a LB liquid containing 100 μg per ml to extract a plasmid and perform sequencing.

T1 sequence (Q9NZQ7 19-238 limits assumed): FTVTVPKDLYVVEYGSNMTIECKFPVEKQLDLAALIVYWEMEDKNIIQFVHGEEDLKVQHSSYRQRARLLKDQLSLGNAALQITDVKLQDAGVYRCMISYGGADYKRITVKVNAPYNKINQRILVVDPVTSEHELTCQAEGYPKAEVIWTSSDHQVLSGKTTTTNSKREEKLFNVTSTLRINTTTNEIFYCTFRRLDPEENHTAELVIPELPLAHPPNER

- OD ratio (experimental group (A405 nm)/control group (A405 nm)): > 20
B1: SEQ ID NO 19 (VHH)
VHH: QVQLQESGGGSVQTGGSLRLSCAASTSIYSNNYMAWFSQAPGKGREGVAAVYIGDGRPYYADSVKGRFTISLDSAKNTVYLQMNSLKPEDTAMYYCAAAPGPLSRNYWYTSANYDYWGQGTQVTVSS
notes: pMECS-expressed; also called VHH numbered 19

- OD ratio (experimental group (A405 nm)/control group (A405 nm)): > 20
B2: SEQ ID NO 44 (VHH)
VHH: B1 VHH with Q13R, N31L, G54D, S63H, S74T
notes: pMECS-expressed; also called VHH numbered 44

- OD ratio (experimental group (A405 nm)/control group (A405 nm)): > 20
B3: SEQ ID NO 41 (VHH)
VHH: B1 VHH with S38R, V64A, N106H, Q119P
notes: pMECS-expressed; also called VHH numbered 41

- OD ratio (experimental group (A405 nm)/control group (A405 nm)): > 20
B4: SEQ ID NO 32 (VHH)
VHH: B1 VHH with N31I, R105Q, N106H
notes: pMECS-expressed; also called VHH numbered 32

- OD ratio (experimental group (A405 nm)/control group (A405 nm)): > 20
B5: SEQ ID NO 21 (VHH)
VHH: B1 VHH with N31L, P88S, N106H
notes: pMECS-expressed; also called VHH numbered 21

- OD ratio (experimental group (A405 nm)/control group (A405 nm)): > 20
B6: SEQ ID NO 26 (VHH)
VHH: B1 VHH with S30N, G44E
notes: pMECS-expressed; also called VHH numbered 26

- OD ratio (experimental group (A405 nm)/control group (A405 nm)): > 20
B7: SEQ ID NO 36 (VHH)
VHH: B1 VHH with I28L, N31Y, I53V, D62A, R105H
notes: pMECS-expressed; also called VHH numbered 36

- OD ratio (experimental group (A405 nm)/control group (A405 nm)): > 20
B8: SEQ ID NO 14 (VHH)
VHH: B1 VHH with G54D, M83V
notes: pMECS-expressed; also called VHH numbered 14

- OD ratio (experimental group (A405 nm)/control group (A405 nm)): > 20
B9: SEQ ID NO 60 (VHH)
VHH: B1 VHH with N31M, G54E, L72P, S74R
notes: pMECS-expressed; also called VHH numbered 60

- OD ratio (experimental group (A405 nm)/control group (A405 nm)): > 20
B10: SEQ ID NO 29 (VHH)
VHH: B1 VHH with Q13R, T26P, G54D
notes: pMECS-expressed; also called VHH numbered 29

- OD ratio (experimental group (A405 nm)/control group (A405 nm)): > 20
B11: SEQ ID NO 37 (VHH)
VHH: B1 VHH with N31I, S38R, G54D, N84T, P88S, N106S
notes: pMECS-expressed; also called VHH numbered 37

- OD ratio (experimental group (A405 nm)/control group (A405 nm)): > 20
B12: SEQ ID NO 15 (VHH)
VHH: B1 VHH with G54D, P58T, R105Y
notes: pMECS-expressed; also called VHH numbered 15

- OD ratio (experimental group (A405 nm)/control group (A405 nm)): > 20
B13: SEQ ID NO 35 (VHH)
VHH: B1 VHH with A23T, G54D
notes: pMECS-expressed; also called VHH numbered 35

- OD ratio (experimental group (A405 nm)/control group (A405 nm)): > 20
B14: SEQ ID NO 47 (VHH)
VHH: B1 VHH with A23T, S30N, A40S, I53M, G54D, V79M
notes: pMECS-expressed; also called VHH numbered 47

- OD ratio (experimental group (A405 nm)/control group (A405 nm)): > 20
B15: SEQ ID NO 46 (VHH)
VHH: B1 VHH with Y29D, S38R, G54D, N106H, Q119P
notes: pMECS-expressed; also called VHH numbered 46

- OD ratio (experimental group (A405 nm)/control group (A405 nm)): > 20
B16: SEQ ID NO 66 (VHH)
VHH: B1 VHH with S30N, I53V, P58T, R105H
notes: pMECS-expressed; also called VHH numbered 66

- OD ratio (experimental group (A405 nm)/control group (A405 nm)): > 20
B17: SEQ ID NO 62 (VHH)
VHH: B1 VHH with T14A, S38R, A40T, G54D, R105H, N106D, Q119P
notes: pMECS-expressed; also called VHH numbered 62

- OD ratio (experimental group (A405 nm)/control group (A405 nm)): > 20
B18: SEQ ID NO 49 (VHH)
VHH: B1 VHH with N31I, G54D
notes: pMECS-expressed; also called VHH numbered 49

- OD ratio (experimental group (A405 nm)/control group (A405 nm)): > 20
B19: SEQ ID NO 42 (VHH)
VHH: B1 VHH with R19T, N31Y, S38R, L72P, N106H, Q119P
notes: pMECS-expressed; also called VHH numbered 42

- OD ratio (experimental group (A405 nm)/control group (A405 nm)): > 20
B20: SEQ ID NO 25 (VHH)
VHH: B1 VHH with A23T, R105H
notes: pMECS-expressed; also called VHH numbered 25

- OD ratio (experimental group (A405 nm)/control group (A405 nm)): > 20
B21: SEQ ID NO 54 (VHH)
VHH: B1 VHH with A24P, S30D, V51I, G54D, R105H
notes: pMECS-expressed; also called VHH numbered 54

- OD ratio (experimental group (A405 nm)/control group (A405 nm)): > 20
B22: SEQ ID NO 63 (VHH)
VHH: B1 VHH with G54D, S85R, R105H
notes: pMECS-expressed; also called VHH numbered 63

- OD ratio (experimental group (A405 nm)/control group (A405 nm)): > 20
B23: SEQ ID NO 22 (VHH)
VHH: B1 VHH with G42R, R105H
notes: pMECS-expressed; also called VHH numbered 22

- OD ratio (experimental group (A405 nm)/control group (A405 nm)): > 20
B24: SEQ ID NO 55 (VHH)
VHH: B1 VHH with A23V, Y29F, R105H
notes: pMECS-expressed; also called VHH numbered 55

- OD ratio (experimental group (A405 nm)/control group (A405 nm)): > 20
B25: SEQ ID NO 13 (VHH)
VHH: B1 VHH with A40N
notes: pMECS-expressed; also called VHH numbered 13

- OD ratio (experimental group (A405 nm)/control group (A405 nm)): > 20
B26: SEQ ID NO 31 (VHH)
VHH: B1 VHH with S38R, A50G, R105H, N106H, Q119P
notes: pMECS-expressed; also called VHH numbered 31

- OD ratio (experimental group (A405 nm)/control group (A405 nm)): > 20
B27: SEQ ID NO 51 (VHH)
VHH: B1 VHH with A23T, N32S, G54D, N106H
notes: pMECS-expressed; also called VHH numbered 51

- OD ratio (experimental group (A405 nm)/control group (A405 nm)): > 20
B28: SEQ ID NO 48 (VHH)
VHH: B1 VHH with G54D, P58T, R105H, T110A
notes: pMECS-expressed; also called VHH numbered 48

- OD ratio (experimental group (A405 nm)/control group (A405 nm)): > 20
B29: SEQ ID NO 38 (VHH)
VHH: B1 VHH with V64A
notes: pMECS-expressed; also called VHH numbered 38

- OD ratio (experimental group (A405 nm)/control group (A405 nm)): > 20
B30: SEQ ID NO 68 (VHH)
VHH: B1 VHH with A23T, A24C, R105H
notes: pMECS-expressed; also called VHH numbered 68

- OD ratio (experimental group (A405 nm)/control group (A405 nm)): > 20
B31: SEQ ID NO 64 (VHH)
VHH: B1 VHH with G54D, A99T, R105Q, N106H
notes: pMECS-expressed; also called VHH numbered 64

- OD ratio (experimental group (A405 nm)/control group (A405 nm)): > 20
B32: SEQ ID NO 24 (VHH)
VHH: B1 VHH with A23T, A40S, I53M, G54D, V79M
notes: pMECS-expressed; also called VHH numbered 24

- OD ratio (experimental group (A405 nm)/control group (A405 nm)): > 20
B33: SEQ ID NO 23 (VHH)
VHH: B1 VHH with I28L, N31Y, I53V, R105H
notes: pMECS-expressed; also called VHH numbered 23

- OD ratio (experimental group (A405 nm)/control group (A405 nm)): > 20
B34: SEQ ID NO 28 (VHH)
VHH: B1 VHH with S38R, G54D, N106H, Q119P
notes: pMECS-expressed; also called VHH numbered 28

- OD ratio (experimental group (A405 nm)/control group (A405 nm)): > 20
B35: SEQ ID NO 17 (VHH)
VHH: B1 VHH with N31L, G54D, S63H, S74T
notes: pMECS-expressed; also called VHH numbered 17

- OD ratio (experimental group (A405 nm)/control group (A405 nm)): > 20
B36: SEQ ID NO 16 (VHH)
VHH: B1 VHH with T26P
notes: pMECS-expressed; also called VHH numbered 16

- OD ratio (experimental group (A405 nm)/control group (A405 nm)): > 20
B37: SEQ ID NO 57 (VHH)
VHH: B1 VHH with N31I, G54D, P88S
notes: pMECS-expressed; also called VHH numbered 57

- OD ratio (experimental group (A405 nm)/control group (A405 nm)): > 20
B38: SEQ ID NO 67 (VHH)
VHH: B1 VHH with A23T, G54D
notes: pMECS-expressed; also called VHH numbered 67

- OD ratio (experimental group (A405 nm)/control group (A405 nm)): > 20
B39: SEQ ID NO 43 (VHH)
VHH: B1 VHH with T26S, Y29A
notes: pMECS-expressed; also called VHH numbered 43

- OD ratio (experimental group (A405 nm)/control group (A405 nm)): > 20
B40: SEQ ID NO 52 (VHH)
VHH: B1 VHH with S38R, I53V, G54D, L72R, N106H, Q119P
notes: pMECS-expressed; also called VHH numbered 52

- OD ratio (experimental group (A405 nm)/control group (A405 nm)): > 20
B41: SEQ ID NO 53 (VHH)
VHH: B1 VHH with G54D
notes: pMECS-expressed; also called VHH numbered 53

- OD ratio (experimental group (A405 nm)/control group (A405 nm)): > 20
B42: SEQ ID NO 27 (VHH)
VHH: B1 VHH with A23T, A40S, I53M, G54D, V79M
notes: pMECS-expressed; also called VHH numbered 27

- OD ratio (experimental group (A405 nm)/control group (A405 nm)): > 20
B43: SEQ ID NO 30 (VHH)
VHH: B1 VHH with A23T, G54D
notes: pMECS-expressed; also called VHH numbered 30

- OD ratio (experimental group (A405 nm)/control group (A405 nm)): > 20
B44: SEQ ID NO 59 (VHH)
VHH: B1 VHH with A24C, A61T, V79L, R105H
notes: pMECS-expressed; also called VHH numbered 59

- OD ratio (experimental group (A405 nm)/control group (A405 nm)): > 20
B45: SEQ ID NO 56 (VHH)
VHH: B1 VHH with T26P, N31A, N77S, R105H
notes: pMECS-expressed; also called VHH numbered 56

- OD ratio (experimental group (A405 nm)/control group (A405 nm)): > 20
B46: SEQ ID NO 33 (VHH)
VHH: B1 VHH with A24C, V79M, R105Q, N106H
notes: pMECS-expressed; also called VHH numbered 33

- OD ratio (experimental group (A405 nm)/control group (A405 nm)): > 20
B47: SEQ ID NO 40 (VHH)
VHH: B1 VHH with V51L, S71A, S85G, S104K, R105H
notes: pMECS-expressed; also called VHH numbered 40

- OD ratio (experimental group (A405 nm)/control group (A405 nm)): > 20
B48: SEQ ID NO 69 (VHH)
VHH: B1 VHH with R105H
notes: pMECS-expressed; also called VHH numbered 69

- OD ratio (experimental group (A405 nm)/control group (A405 nm)): > 20
B49: SEQ ID NO 39 (VHH)
VHH: B1 VHH with V51L, S71A, S85G, S104K, R105H
notes: pMECS-expressed; also called VHH numbered 39
